# Measurements published in patent US20200093909A1 (INSTITUTE FOR RESEARCH IN BIOMEDICINE, published 2020).
# T1: NPDP-peptide (Plasmodium falciparum)
# T1 peptide: KQPADGNPDPNANPNKNN
# T2: 22-110-peptide (Plasmodium falciparum)
# T2 construct: N-terminal CSP peptide coated at 1 ug/mL in ELISA
# T2 peptide: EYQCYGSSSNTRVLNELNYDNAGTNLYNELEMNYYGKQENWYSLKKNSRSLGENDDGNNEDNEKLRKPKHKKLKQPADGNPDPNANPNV
# T3: NANP-peptide (Plasmodium falciparum)
# T3 construct: CSP repeat peptide coated at 2 ug/mL in ELISA; also called NANP repeat region peptide
# T3 peptide: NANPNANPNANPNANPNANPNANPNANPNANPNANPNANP
# Experiments:
# [1] = molecular target: T4, CSP C-terminal peptide 282-383 (Plasmodium falciparum); assay: ELISA, C-terminal peptide 282-383 coated at 1 ug/ml
# T4 construct: Coated at 1 ug/ml in ELISA; also called C-terminus of CSP
# NPDP-peptide = molecular target: T1, NPDP-peptide; assay: ELISA, peptide coated, titrated antibody
# 22-110-peptide = molecular target: T2, 22-110-peptide; assay: ELISA, peptide coated, titrated antibody
# NANP-peptide = molecular target: T3, NANP-peptide; assay: ELISA, peptide coated, titrated antibody
# [2] = molecular target: T4, CSP C-terminal peptide 282-383; assay: ELISA, peptide coated at 1 ug/ml, B cell supernatants from 1/3 to 1/648 dilution
Binder,binding result [1],EC50 (NPDP-peptide),binding result (22-110-peptide),binding result (NANP-peptide),binding result (NPDP-peptide),binding result [2]
"MGU11 (antibody, V domains shown) VH: QVQLVESGGGVVQPGRSLRLSCVASGFSFSSYGMHWVRQAPGKGLEWVAVIWYDGTNKYYADSVKGRFTISRDNTKNTLYLQMNSLRADDTAMYYCANDIAGWGYDGSNAWGQGTLVTVSS VL: LSLPVTPGQPASISCKSSQSLVYSDGNTYLNWFQQRPGQSPRRLIYKVSNRDSGVPDRFSGSGSGTDFTLKISRVEAEDVGVYYCMQGTVGFTFGPGTTVDIK",no binding,,,,,
"MGH2 (antibody, V domains shown) VH: QVQLVESGGGVVQPGGSLRLSCTASGFSFSSYAMHWVRQAPGKGLEWVAYTRYDGSNKFYLDSVQGRFTISRDNSKNTLYLEMDSLRLEDTAVYFCAKVGDGTVAGTIDYWGQGTLVTVSS VL: YIVMTQSPLSLPVTLGQPASISCRSSQSLVYSDGNTYLNWYQQRPGQSPRRLIYKVSNRDSGVPDRFSGSGSGTDFTLKISRVEAEDVGVYYCMQGTHWWTFGQGTKVEIK",no binding,< 0.1 µg/mL,,,,
"MGG3 (antibody, V domains shown) VH: QEQLVESGGGVVQPGKSLRLSCAASGFTFSTFGMHWVRQAPGKGLEWVAVIWYDGSSKYHADSVKGRFTISRDNSKSTLYLQMNSLRAEDTAMYYCVKVGANWGWRYFDLWGRGTLVTVSS VL: DIVMTQTPLSLSVTPGQPASISCKSSQSLLHSDGNTYLSWYLQKPGQSPQLLIYEVSSRFSGVPDRFSGSGSGTDFTLKISRVEADDVGVYYCMQGIHSWTFGQGTKVEIK",no binding,< 0.1 µg/mL,,,,
"MGG1 (antibody, V domains shown) VH: EVQLVESGGGVVRPGGSLRLSCAASGFTFDDYAMSWVRQAPGKGLEWVSGINWNGGSTGYADSVKGRFTISRDNAKNSLYLQMNSLRAEDTALYHCARLGRAAREYYYYYMDVWGKGTTVTVSS VL: QSVLTQPPSVSAAPGQKVTISCSGSSSNIGNNYVSWYQQLPGTAPKLLIYDNNKRPSGIPDRFSGSKSGTSATLGITGLQTGDEADYYCGTWDSSLSAGVFGGGTKLTVLG",no binding,,binds,,,
"MGU3 (antibody, V domains shown) VH: EVLLVESGGGLVQPGGSLRLSCAASGFTFSDYNMHWVRQAPGKGLEWLSYISHSSSTTYYADSVRGRFTISRDNAKNSLYLQMNSLRAEDTAVYYCARLRPLSYSGRYRDYWGQGTLVTVSS VL: DIQMTQSPSSLSASVGDRVTITCQASQDVSNYVNWYQQKPGKAPKVLIYDASTLQTGVPSRFSGSGSGTDFTFSISSLQPEDIATYYCQQYDSLPLTFGGGTKVEIK",,,no binding,no binding,no binding,binds
"MGU5 (antibody, V domains shown) VH: QVQLVESGGGVVQPGRSLRLSCAASGFSFSSYGMHWVRQAPGKGLDWVALIWHDGTNKFYTDSVKGRFTISRDNSKDTLFLQMNSLRVEDTAVYYCTKRAGWGDALDIWGQGTMVTVSS VL: DIQMTQSPSSLSASVGDRVTITCQASQDISNYLNWYQQKPGKAPKLLIYDASNLETGVPSRFSGSGSATDFTLTISSLQSEDIATYYCQQQRIFGGGTKVEIK",no binding,< 0.1 µg/mL,,,,
"MGU8 (antibody, V domains shown) VH: QVQLVESGGGVVQPGRSLRLSCAAGGFTFSNYGMHWVRQAPGKGLEWVALIWHDGTNKFYADSVKGRFTISRDNSKNTLSLQMDSLTTEDTAIYFCTKRGGWGDGSDIWGQGTMVTVSS VL: DIQMTQSPSSLSASVGDRVTITCQASQDVDNYLNWYQHKPGKAPKLLIYDASNLATGVPSRFSGSGSSTDFTLTISSLQSDDFATYYCQQQRIFGGGTRVEIK",no binding,< 0.1 µg/mL,,,,
"MGG4 (antibody, V domains shown) VH: QVQLVESGGGVVQPGRSLRLSCAASGFRFSDYGMHWVRQAPGKGLEWVALIWYDGSNESYLDSVKGRFTISRDNSKNTLYLQMNNLRTEDTAVYYCAKLLVGITTDVFDVWGQGTVVTVSS VL: DIVMTQSPDSLAVSLGERATINCRSSQSVLSSSNNKNYLAWYQHKPRQPPKLLIYWASTRESGVPDRFSGSGSGTDFTLTISSLQAEDVAVYYCQQYYTASPFFGGGTKVEIK",no binding,< 0.1 µg/mL,,,,
"MGG2 (antibody, V domains shown) VH: EVQLVESGGGLVQPGGSLRLSCAASGFTLNNYWMHWVRQAPGKGLVWVAHINIDGSTTTYADSVKGRFTISRDNAKNTLYLQMNSLRAEDTAVYYCAKGSIKAGGFWSGYSNWFDPWGQGTLVTVSS VL: QAVVTQEPSLTVSPGGTVTLTCDSDPGPVTSGHYPYWFQQKPGQVPRTLIYDTSNKHSWTPARFSGSLLGGKAALTLSGAQPEDEADYYCLLSYGGAPVFGGGTKLTVL",no binding,,binds,binds,binds,
"MGG8 (antibody, V domains shown) VH: EVQLVESGGGLVQPGGSLKLSCAASGFMISGSVLHWVRQASGKGLEWLGRIRDKANNEATAYAASVKGRFTISRDDSKDTTYLQMNSLRIEDTAVYYCTRGIIVGDTWHFDPWGQGTLVTVSS VL: DIVMTQTPLSLSVTPGQTASISCKSSESLLRSDGKTYLYWYLQKPGQSPQLLMYEVSKRFSGVPDRFSGSGSGTDFTLKISRVETDDVGIYYCMQSIQLVTFGQGTKVEIK",no binding,,binds,binds,binds,
"MGU12 (antibody, V domains shown) VH: QVQLVESGGGVVQPGRSLRLSCAASGFSFSSYGMHWVRQAPGKGPEWVAVIWHDGSYSYYADSVRGRFTISRDNSKNTLYLQMNSLRPEDTGMYHCVKVEDYVRGSSHGGAFHIWGQGTMVTVSS VL: DIQMTQSPSTLSASVGDRVTITCRASQTINNWLAWYQWKPGKAPELLIYKASSLESGVPSRFSGSGSGTEFTLTISSLQPDDFATYYCQQYSSYWTFGQGTKVDIK",no binding,< 0.1 µg/mL,,,,
"MGU1 (antibody, V domains shown) VH: QVQLVESGGGVVQPGRSLRLSCAASGFAFSSYGMNWVRQAPGKGLEWVAVIWHDGTNKYYRDSVKGRFIISRDNAKNTLYLQMDSLSAEDTAMYYCAIWYLDSPDHGFDIWGRGTMVTVSS VL: QLVLTQSPSASASLGVSVTLTCTLNNGHSSNAIAWHQQQPGKGPRYLMKVNSDGSHNKGAAVPDRFSGSSSGTERHLTISSLQSDDEADYYCQAWDSGIWVFGGGTKLTVL",no binding,,binds,binds,binds,
"MGU10 (antibody, V domains shown) VH: QVQLVESGGGVVQPGRSLRLSCAASGFAFSNYGMNWVRQAPGKGLEWVAVIWHDGSLKYYTQSVKGRFTISRDNAKNTLFLQMDSLSADDTAMYYCTVWYLETPDDGFDIWGRGTMVTVSS VL: QLVLTQPPSASASLGVSVTLTCTLSHGHTSKAIAWHQQQPGKGPRYLMKVNSDGSHTKGAAVPDRFSGSTSGAERHFTISNLQSDDEADYYCQAWDSGIWVFGGGTKLTVL",no binding,,,,,
"MGV3 (antibody, V domains shown, also called biotin-labeled MGV3; biotinylated MGV3) VH: EVQVVESGGDLVQPGGSLRLSCAVYGFTVSDSYMSWVRQAPGKGLEWVSVIYSGSSTYYIDSVKGRFTISRDRSKNTLYLQMNTLRVEDTALYYCARGPNDYRNRKYYYYMDVWGKGTAVTVSS VL: EIVLTQSPDTLSLSAGERVTLSCRASQSVDSPYLAWYQQRPGQTPRLLIFGASIRATDIPDRFSGGGSGTDFTLTISRLEPEDSGVYYCHQYGNAPYIFGQGTKLEIK",no binding,,binds,no binding,binds,
"MGH3 (antibody, V domains shown) VH: EVQLVESGGGLVKPGGSLRLSCAASGFTFSSYTMNWVRQAPGKGLEWVSSISSSGSYIYYADSVKGRCTISRDNAKNSLDLQMNSLRAEDAAVYYCARNVLDSSGYPTYFDYWGQGTLVTVSS VL: DIVMTQSPLSLPVTPGEPASISCRSSQSLLYSNGYNYLDWYVQKPGQSPRLLIYLGSNRASGVPDRFSGSGSGTDFTLRISRVEAEDVGFYYCMQAVQTPLTFGGGTKVEIK",no binding,,,binds,,
"MGH1 (antibody, V domains shown) VH: QVQLVQSGAEVKKPGASVRVSCKTSGYTFTDYYVHWVRQAPGHGLECMGWINPYIGVSKYAQKFQGRVTLTRDTSISTAYMEISRLTSDDTAVYYCAACSNVGCYVYWGQGSLVTVSS VL: DVVMTQSPLSLPVTLGQPASISCRSSQSLVYSDGNTYLNWFQQRPGQSPRRLIYKVSNRDSGVPDRFSGSGSGTDFTLKISRVEAEDVAIYFCMQGTHWPDTFGQGTKLEIK",no binding,,binds,binds,binds,
